Assay results taken from the RNAGym collection of RNA variant scans (doi:10.1093/molbev/msab373).

B1: Azoarcus group I ribozyme (parent)
chain: GUGCCUUGCGCCGGGAAACCACGCAAGGGAUGGUGUCAAAUUCGGCGAAACCUAAGCGCCCGCCCGGGCGUAUGGCAACGCCGAGCCAAGCUUCGGCGCCUGCGCCGAUGAAGGUGUAGAGACUAGACGGCACCCACCUAAGGCAAACGCUAUGGUGAAGGCAUAGUCCAGGGAGUGGCGAAAGUCACACAAACCGG

Variants of: B1
Assay: reverse-splicing fitness (ratio to wild type); higher = more active; in vitro selection; Mg2+ level not given
In short: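 An in vitro group I ribozyme library with randomized positions was T7-transcribed and gel-purified. In triplicate, 10 pmol RNA in EPPS pH 7.5 was reacted with 50 pmoles of a 30-nt RNA substrate for 1 h at 37 °C across several added MgCl2 levels (1–48 mM), then stopped with EDTA. Products were reverse transcribed from a substrate-complementary primer, PCR-amplified and sequenced (HiSeq 4000). Fitness is a variant's read proportion after selection over that before, normalised to wild type.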

Which reverse-splicing fitness does the source give for GUGCCUUGCGCCGGGAAACCACGCAAGGGAUGGUGUCAAAUUCGGCGAAACCUAAGCGCCCGCCCGGGCGUAUGGCAACGCUGAGCCAAGCUUCGGCGCCUGCGCCGAUGCAGGUGUAGAGACUAGACGGCACCCACCUAAGGCUAACGCUAUGGUGAAGGCAUAGUCUAGGGAGUGGCGAAAGUCACACAAACCGG [C82U A111C A145U C169U] here?
The reverse-splicing fitness was 0.0114.

Which reverse-splicing fitness does the source give for GUGCCUUGCGCCGGGAAACCACGCAAGGGAUGGUGUCAAAUUCGGCGAAACCUAAGCGCCCGCCCGGGCGUAUGGCAACGCUGAGCCAAGCUUCGGCGCCUGCGCCGAUGCAGGUGUAGAGACUAGACGGCACCCACCUAAGGCUAACGCUAUGGUGAAGGCAUAGUCUAGGGAGAGGCGAAAGUCACACAAACCGG [C82U A111C A145U C169U U176A] here?
The reverse-splicing fitness was 0.0163.

For GUGCCUUGCGCCGGGAAACCACGCAAGGGAUGGUGUCAAAUUCGGCGAAACCUAAGCGCCCGCCCGGGCGUAUGGCAACGCUGAGCCAAGCUUCGGCGCCUGCGCCGAUGCAGGUGUAGAGACUAGACGGCACCCACCUAAGGCUAACGCUAUGGUGAAGGCAUAGUCUAGGGAGCGGCGAAAGUCACACAAACCGG [C82U A111C A145U C169U U176C], which reverse-splicing fitness is on record?
The reverse-splicing fitness was 0.0143.

Which reverse-splicing fitness does the source give for GUGCCUUGCGCCGGGAAACCACGCAAGGGAUGGUGUCAAAUUCGGCGAAACCUAAGCGCCCGCCCGGGCGUAUGGCAACGCUGAGCCAAGCUUCGGCGCCUGCGCCGAUGCAGGUGUAGAGACUAGACGGCACCCACCUAAGGCUAACGCUAUGGUGAAGGCAUAGUCUAGGGAGGGGCGAAAGUCACACAAACCGG [C82U A111C A145U C169U U176G] here?
Its reverse-splicing fitness is 0.00634.

Which reverse-splicing fitness does the source give for GUGCCUUGCGCCGGGAAACCACGCAAGGGAUGGUGUCAAAUUCGGCGAAACCUAAGCGCCCGCCCGGGCGUAUGGCAACGCUGAGCCAAGCUUCGGCGCCUGCGCCGAUGCAGGUGUAGAGACUAGACGGCACCCACCUAAGGCUAACGCUAUGGUGAAGGCAUAGUCCAGGGAGAGGCGAAAGUCACACAAACCGG [C82U A111C A145U U176A] here?
The reverse-splicing fitness was 0.0808.

For GUGCCUUGCGCCGGGAAACCACGCAAGGGAUGGUGUCAAAUUCGGCGAAACCUAAGCGCCCGCCCGGGCGUAUGGCAACGCUGAGCCAAGCUUCGGCGCCUGCGCCGAUGCAGGUGUAGAGACUAGACGGCACCCACCUAAGGCUAACGCUAUGGUGAAGGCAUAGUCCAGGGAGCGGCGAAAGUCACACAAACCGG [C82U A111C A145U U176C], which reverse-splicing fitness is on record?
The reverse-splicing fitness was 0.103.

With GUGCCUUGCGCCGGGAAACCACGCAAGGGAUGGUGUCAAAUUCGGCGAAACCUAAGCGCCCGCCCGGGCGUAUGGCAACGCUGAGCCAAGCUUCGGCGCCUGCGCCGAUGCAGGUGUAGAGACUAGACGGCACCCACCUAAGGCUAACGCUAUGGUGAAGGCAUAGUCCAGGGAGGGGCGAAAGUCACACAAACCGG [C82U A111C A145U U176G] as the variant, how does the reverse-splicing fitness read?
The reverse-splicing fitness was 0.0238.

For GUGCCUUGCGCCGGGAAACCACGCAAGGGAUGGUGUCAAAUUCGGCGAAACCUAAGCGCCCGCCCGGGCGUAUGGCAACGCUGAGCCAAGCUUCGGCGCCUGCGCCGAUGCAGGUGUAGAGACUAGACGGCACCCACCUAAGGCAAACGAUAUGGUGAAGGCAUAGUCCAGGGAGUGGCGAAAGUCACACAAACCGG [C82U A111C C150A], which reverse-splicing fitness is on record?
Its reverse-splicing fitness is 0.0255.

For GUGCCUUGCGCCGGGAAACCACGCAAGGGAUGGUGUCAAAUUCGGCGAAACCUAAGCGCCCGCCCGGGCGUAUGGCAACGCUGAGCCAAGCUUCGGCGCCUGCGCCGAUGCAGGUGUAGAGACUAGACGGCACCCACCUAAGGCAAACGAUAUGGUGAAGGCAUAGUCAAGGGAGUGGCGAAAGUCACACAAACCGG [C82U A111C C150A C169A], which reverse-splicing fitness is on record?
Its reverse-splicing fitness is 0.00994.

Which reverse-splicing fitness does the source give for GUGCCUUGCGCCGGGAAACCACGCAAGGGAUGGUGUCAAAUUCGGCGAAACCUAAGCGCCCGCCCGGGCGUAUGGCAACGCUGAGCCAAGCUUCGGCGCCUGCGCCGAUGCAGGUGUAGAGACUAGACGGCACCCACCUAAGGCAAACGAUAUGGUGAAGGCAUAGUCAAGGGAGAGGCGAAAGUCACACAAACCGG [C82U A111C C150A C169A U176A] here?
The reverse-splicing fitness was 0.0162.

With GUGCCUUGCGCCGGGAAACCACGCAAGGGAUGGUGUCAAAUUCGGCGAAACCUAAGCGCCCGCCCGGGCGUAUGGCAACGCUGAGCCAAGCUUCGGCGCCUGCGCCGAUGCAGGUGUAGAGACUAGACGGCACCCACCUAAGGCAAACGAUAUGGUGAAGGCAUAGUCAAGGGAGCGGCGAAAGUCACACAAACCGG [C82U A111C C150A C169A U176C] as the variant, how does the reverse-splicing fitness read?
The reverse-splicing fitness was 0.0175.

For GUGCCUUGCGCCGGGAAACCACGCAAGGGAUGGUGUCAAAUUCGGCGAAACCUAAGCGCCCGCCCGGGCGUAUGGCAACGCUGAGCCAAGCUUCGGCGCCUGCGCCGAUGCAGGUGUAGAGACUAGACGGCACCCACCUAAGGCAAACGAUAUGGUGAAGGCAUAGUCAAGGGAGGGGCGAAAGUCACACAAACCGG [C82U A111C C150A C169A U176G], which reverse-splicing fitness is on record?
Its reverse-splicing fitness is 0.00821.

For GUGCCUUGCGCCGGGAAACCACGCAAGGGAUGGUGUCAAAUUCGGCGAAACCUAAGCGCCCGCCCGGGCGUAUGGCAACGCUGAGCCAAGCUUCGGCGCCUGCGCCGAUGCAGGUGUAGAGACUAGACGGCACCCACCUAAGGCAAACGAUAUGGUGAAGGCAUAGUCGAGGGAGUGGCGAAAGUCACACAAACCGG [C82U A111C C150A C169G], which reverse-splicing fitness is on record?
Its reverse-splicing fitness is 0.00852.

Which reverse-splicing fitness does the source give for GUGCCUUGCGCCGGGAAACCACGCAAGGGAUGGUGUCAAAUUCGGCGAAACCUAAGCGCCCGCCCGGGCGUAUGGCAACGCUGAGCCAAGCUUCGGCGCCUGCGCCGAUGCAGGUGUAGAGACUAGACGGCACCCACCUAAGGCAAACGAUAUGGUGAAGGCAUAGUCGAGGGAGAGGCGAAAGUCACACAAACCGG [C82U A111C C150A C169G U176A] here?
The reverse-splicing fitness was 0.0162.

For GUGCCUUGCGCCGGGAAACCACGCAAGGGAUGGUGUCAAAUUCGGCGAAACCUAAGCGCCCGCCCGGGCGUAUGGCAACGCUGAGCCAAGCUUCGGCGCCUGCGCCGAUGCAGGUGUAGAGACUAGACGGCACCCACCUAAGGCAAACGAUAUGGUGAAGGCAUAGUCGAGGGAGCGGCGAAAGUCACACAAACCGG [C82U A111C C150A C169G U176C], which reverse-splicing fitness is on record?
The reverse-splicing fitness was 0.0236.
